From US6599706B1, “Recombinant PR-3 and assays employing the same” (Chiron Corporation, priority 1994, dated 2003)

What was measured:
[1] = Enzymatic activity of purified recombinant PR-3 on Boc-Ala-ONP; format: biochemical, human
Method: In order to generate therapeutic-grade PR-3, the Mono-S purified recombinant PR-3 (obtained as described in Example 16) was subjected to size-exclusion chromatography. 0.8 mg of protein from the Mono-S pool was concentrated to 2 mg/ml by Amicon YM10 ultrafiltration and loaded onto a S-300 HR column (1.6×60 cm. Pharmacia Biotechnology, Inc., NJ) and chromatographed with a mobile phase of PBS containing 0.04% Triton X-100. Fractions enriched in PR-3 were detected by assaying for enzymatic activity (Boc-Ala-ONP assay) and analyzing on SDS-PAGE with Coomassie blue staining. A single band of 28 kD was observed. The PR-3 eluted with a retention time correlating to an apparent molecular mass of 35 kD as compared to BSA and chymotrypsinogen A chromatographed in the same buffer. This process produced PR-3 that was ≧95% pure with an overall recovery of about 25% and a lipopolysaccharide content of ≦about 10 ng per mg of protein as measured using an Limulus Amoebocyte Lysate Assay (Associates of Cape Cod, Inc., Woods Hole, Mass.). The purified enzyme has a specific activity of approximately 30 units per mg (where a unit is defined as 1 micromole of product produced from cleavage of Boc-Ala-ONP permin. at 25° C., pH 7.5) and a Kcat of approximately 12 per second.

[2] = Storage stability of active recombinant PR-3; format: physicochemical; settings: 4° C.; phosphate buffer pH 7.0 with 0.1% Triton X-100, NaCl eluate
Method: The proPR-3 was purified as described above through the Mono-S-Sepharose step and the DPPI activation. At the end of the activation reaction, the PR-3 was diluted 3-fold using deionized water and loaded onto a Pharmacia Mono-S column, previously equilibrated in loading buffer B (10 mM sodium phosphate buffer, pH 7.0, containing 0.1% (v/v) Triton X-100). After washing the column with three bed volumes of loading buffer B, the column was eluted with a 20-minute, 0-0.8 M sodium chloride gradient at 1 ml/min flow rate. PR-3 eluted as the only major peak of protein in the gradient. PR-3 activity was measured across the column by diluting 10 μl of each fraction into 100 mM sodium phosphate buffer containing 10% acetonitrile and 0.5 mM Boc-Ala-ONp. The absorbance at 402 nm of each assay sample was measured after approximately 10 min. Fractions containing activated PR-3 were pooled and stored at 4° C. […] The active PR-3 was stable over 1 month at 4° C. under these conditions

B1: PR-3: purified active recombinant human PR-3 serine protease produced from proPR-3 in Sf9 cells, activated with DPPI (protein)
chain: MAHRPPSPALASVLLALLLSGAARAAEIVGGHEAQPHSRPYMASLQMRGNPGSHFCGGTLIHPSFVLTAAHCLRDIPQRLVNVVLGAHNVRTQEPTQQHFSVAQVFLNNYDAENKLNDILLIQLSSPANLSASVATVQLPQQDQPVPHGTQCLAMGWGRVGAHDPPAQVLQELNVTVVTFFCRPHNICTFVPRRKAGICFGDSGGPLICDGIIQGIDSFVIWGCATRLFPDFFTRVALYVDWIRSTLRRVEAKGRP
**Q.** With B1 as the molecule, how does the Kcat ([1]; Boc-Ala-ONP) read?
**A.** approximately 12 per second

**Q.** What about the specific activity ([1]; unit = 1 micromole product per min at 25° C., pH 7.5) of the same molecule?
**A.** approximately 30 units per mg

**Q.** And the stability on storage [2]?
**A.** over 1 month
